Biological target: GFP-tagged mProVII chains (in the FRET assay) (mouse)
Assay: FRET or BRET

**Q.** With “RFP-tagged wild type mouse mini-procollagen VII α chain (domain or fragment)” as the substance, how does the FRET efficiency EF read?
**A.** Its FRET efficiency EF is 5.83%.
